Experimental data taken from the supplement of paper PMC11246515.
± gives the standard deviation of the averaged measurements.

Test: total protein half-life in vivo (active degradation + dilution); higher = more stable protein
[1] = E. coli NCM3722 delta-clpP delta-lon delta-hslV, growth: N-lim chemostat, doubling time 6 h
[2] = E. coli NCM3722 delta-clpP, growth: N-lim chemostat, doubling time 6 h
[3] = E. coli NCM3722 delta-hslV, growth: N-lim chemostat, doubling time 6 h
[4] = E. coli NCM3722 delta-lon, growth: N-lim chemostat, doubling time 6 h
[5] = E. coli NCM3722 delta-smpB, growth: N-lim chemostat, doubling time 6 h
[6] = wild type E. coli NCM3722, growth: C-lim chemostat, doubling time 3 h
[7] = wild type E. coli NCM3722, growth: C-lim chemostat, doubling time 6 h
[8] = wild type E. coli NCM3722, growth: C-lim chemostat, doubling time 12 h
[9] = wild type E. coli NCM3722, growth: N-lim chemostat, doubling time 6 h
[10] = wild type E. coli NCM3722, growth: N-lim chemostat, doubling time 12 h
[11] = wild type E. coli NCM3722, growth: P-lim chemostat, doubling time 6 h
[12] = wild type E. coli NCM3722, growth: P-lim chemostat, doubling time 12 h

| Sequence | total protein half-life in vivo [1] [h] | total protein half-life in vivo [2] [h] | total protein half-life in vivo [3] [h] | total protein half-life in vivo [4] [h] | total protein half-life in vivo [5] [h] | total protein half-life in vivo [6] [h] | total protein half-life in vivo [7] [h] | total protein half-life in vivo [8] [h] | total protein half-life in vivo [9] [h] | total protein half-life in vivo [10] [h] | total protein half-life in vivo [11] [h] | total protein half-life in vivo [12] [h] |
| --- | --- | --- | --- | --- | --- | --- | --- | --- | --- | --- | --- | --- |
| MQVSRRQFFKICAGGMAGTTAAALGFAPSVALAETRQYKLLRTRETRNTCTYCSVGCGLLMYSLGDGAKNAKASIFHIEGDPDHPVNRGALCPKGAGLVDFIHSESRLKFPEYRAPGSDKWQQISWEEAFDRIAKLMKEDRDANYIAQNAEGVTVNRWLSTGMLCASASSNETGYLTQKFSRALGMLAVDNQARVUHGPTVASLAPTFGRGAMTNHWVDIKNANLVVVMGGNAAEAHPVGFRWAMEAKIHNGAKLIVIDPRFTRTAAVADYYAPIRSGTDIAFLSGVLLYLLNNEKFNREYTEAYTNASLIVREDYGFEDGLFTGYDAEKRKYDKSSWTYELDENGFAKRDTTLQHPRCVWNLLKQHVSRYTPDVVENICGTPKDAFLKVCEYIAETSAHDKTASFLYALGWTQHSVGAQNIRTMAMIQLLLGNMGMAGGGVNALRGHSNIQGLTDLGLLSQSLPGYMTLPSEKQTDLQTYLTANTPKPLLEGQVNYWGNYPKFFVSMMKAFFGDKATAENSWGFDWLPKWDKGYDVLQYFEMMKEGKVNGYICQGFNPVASFPNKNKVIGCLSKLKFLVTIDPLNTETSNFWQNHGELNEVDSSKIQTEVFRLPSTCFAEENGSIVNSGRWLQWHWKGADAPGIALTDGEILSGIFLRLRKMYAEQGGANPDQVLNMTWNYAIPHEPSSEEVAMESNGKALADITDPATGAVIVKKGQQLSSFAQLRDDGTTSCGCWIFAGSWTPEGNQMARRDNADPSGLGNTLGWAWAWPLNRRILYNRASADPQGNPWDPKRQLLKWDGTKWTGWDIPDYSAAPPGSGVGPFIMQQEGMGRLFALDKMAEGPFPEHYEPFETPLGTNPLHPNVISNPAARIFKDDAEALGKADKFPYVGTTYRLTEHFHYWTKHALLNAILQPEQFVEIGESLANKLGIAQGDTVKVSSNRGYIKAKAVVTKRIRTLKANGKDIDTIGIPIHWGYEGVAKKGFIANTLTPFVGDANTQTPEFKSFLVNVEKV | 5.155 ± 0.0061 | 4.77 ± 0.55 | 6.6 | 5.502 ± 0.033 | 4.72 | > 4 | 5.8 | 11.4 ± 0.86 | 5.89 | 10.4 ± 0.35 | 4.79 ± 0.5 | 8.459 ± 0.046 |
| MQVSVETTQGLGRRVTITIAADSIETAVKSELVNVAKKVRIDGFRKGKVPMNIVAQRYGASVRQDVLGDLMSRNFIDAIIKEKINPAGAPTYVPGEYKLGEDFTYSVEFEVYPEVELQGLEAIEVEKPIVEVTDADVDGMLDTLRKQQATWKEKDGAVEAEDRVTIDFTGSVDGEEFEGGKASDFVLAMGQGRMIPGFEDGIKGHKAGEEFTIDVTFPEEYHAENLKGKAAKFAINLKKVEERELPELTAEFIKRFGVEDGSVEGLRAEVRKNMERELKSAIRNRVKSQAIEGLVKANDIDVPAALIDSEIDVLRRQAAQRFGGNEKQALELPRELFEEQAKRRVVVGLLLGEVIRTNELKADEERVKGLIEEMASAYEDPKEVIEFYSKNKELMDNMRNVALEEQAVEAVLAKAKVTEKETTFNELMNQQA [P0A850] | 6.11 ± 0.15 | 5.78 ± 0.82 | 5.67 ± 0.022 | 6 ± 0.012 | 4.96 ± 0.061 | 3.12 ± 0.18 | 5.738 ± 0.013 | 10.4 ± 0.89 | 5.35 ± 0.36 | 9.03 ± 0.57 | 5.01 ± 0.23 | 9.5 ± 0.3 |
| MQWQTKLPLIAILRGITPDEALAHVGAVIDAGFDAVEIPLNSPQWEQSIPAIVDAYGDKALIGAGTVLKPEQVDALARMGCQLIVTPNIHSEVIRRAVGYGMTVCPGCATATEAFTALEAGAQALKIFPSSAFGPQYIKALKAVLPSDIAVFAVGGVTPENLAQWIDAGCAGAGLGSDLYRAGQSVERTAQQAAAFVKAYREAVQ [Q6BF16] | 4.76 |  |  |  |  | 2.04 | 3.84 | 8.18 |  |  |  |  |
| MQYKDENGVNEPSRRRLLKVIGALALAGSCPVAHAQKTQSAPGTLSPDARNEKQPFYGEHQAGILTPQQAAMMLVAFDVLASDKADLERLFRLLTQRFAFLTQGGAAPETPNPRLPPLDSGILGGYIAPDNLTITLSVGHSLFDERFGLAPQMPKKLQKMTRFPNDSLDAALCHGDVLLQICANTQDTVIHALRDIIKHTPDLLSVRWKREGFISDHAARSKGKETPINLLGFKDGTANPDSQNDKLMQKVVWVTADQQEPAWTIGGSYQAVRLIQFRVEFWDRTPLKEQQTIFGRDKQTGAPLGMQHEHDVPDYASDPEGKVIALDSHIRLANPRTAESESSLMLRRGYSYSLGVTNSGQLDMGLLFVCYQHDLEKGFLTVQKRLNGEALEEYVKPIGGGYFFALPGVKDANDYFGSALLRV |  | 5.58 |  |  | 5.85 | 2.17 ± 0.16 | 4.4 | 7.71 |  |  |  |  |
| MQYNPLGKTDLRVSRLCLGCMTFGEPDRGNHAWTLPEESSRPIIKRALEGGINFFDTANSYSDGSSEEIVGRALRDFARREDVVVATKVFHRVGDLPEGLSRAQILRSIDDSLRRLGMDYVDILQIHRWDYNTPIEETLEALNDVVKAGKARYIGASSMHASQFAQALELQKQHGWAQFVSMQDHYNLIYREEEREMLPLCYQEGVAVIPWSPLARGRLTRPWGETTARLVSDEVGKNLYKESDENDAQIAERLTGVSEELGATRAQVALAWLLSKPGIAAPIIGTSREEQLDELLNAVDITLKPEQIAELETPYKPHPVVGFK | 4.533 ± 0.045 | 4.47 ± 0.65 | 4.55 ± 0.91 | 5 ± 0.2 | 3.79 ± 0.081 | 2.81 ± 0.13 | 5.04 ± 0.076 | 9.04 ± 0.38 | 4.21 ± 0.2 | 6.51 ± 0.4 | 4.28 ± 0.23 | 8.83 ± 0.12 |
| MREAFICDGIRTPIGRYGGALSSVRADDLAAIPLRELLVRNPRLDAECIDDVILGCANQAGEDNRNVARMATLLAGLPQSVSGTTINRLCGSGLDALGFAARAIKAGDGDLLIAGGVESMSRAPFVMGKAASAFSRQAEMFDTTIGWRFVNPLMAQQFGTDSMPETAENVAELLKISREDQDSFALRSQQRTAKAQSSGILAEEIVPVVLKNKKGVVTEIQHDEHLRPETTLEQLRGLKAPFRANGVITAGNASGVNDGAAALIIASEQMAAAQGLTPRARIVAMATAGVEPRLMGLGPVPATRRVLERAGLSIHDMDVIELNEAFAAQALGVLRELGLPDDAPHVNPNGGAIALGHPLGMSGARLALAASHELHRRNGRYALCTMCIGVGQGIAMILERV [P0C7L2] | 3.42 |  |  | 2.17 |  | 2.77 ± 0.17 | 3.37 ± 0.079 | 4.76 ± 0.58 |  |  | 4.99 ± 1.1 | 8.63 ± 0.14 |
| MRFAIVVTGPAYGTQQASSAFQFAQALIADGHELSSVFFYREGVYNANQLTSPASDEFDLVRAWQQLNAQHGVALNICVAAALRRGVVDETEAGRLGLASSNLQQGFTLSGLGALAEASLTCDRVVQF | 5.11 | 4.58 |  |  | 3.44 |  |  |  | 4.52 |  | 6.11 | > 16 |
| MRFIIRTVMLIALVWIGLLLSGYGVLIGSKENAAGLGLQCTYLTARGTSTVQYLHTKSGFLGITDCPLLRKSNIVVDNG [Q2MB16] | 7.32 ± 0.77 | 6.25 |  |  | 6.03 ± 1.1 |  |  | 14 ± 1.4 | 5.45 |  |  | 14 ± 2.2 |
| MRFYRPLGRISALTFDLDDTLYDNRPVILRTEREALTFVQNYHPALRSFQNEDLQRLRQAVREAEPEIYHDVTRWRFRSIEQAMLDAGLSAEEASAGAHAAMINFAKWRSRIDVPQQTHDTLKQLAKKWPLVAITNGNAQPELFGLGDYFEFVLRAGPHGRSKPFSDMYFLAAEKLNVPIGEILHVGDDLTTDVGGAIRSGMQACWIRPENGDLMQTWDSRLLPHLEISRLASLTSLI [P0ADP0] | 5.24 ± 0.7 | 4.56 ± 0.69 | 3.79 ± 0.05 | 4.87 ± 0.35 | 3.76 ± 0.16 |  | 5.75 ± 0.33 | 10.1 ± 1.4 | 3.83 ± 0.34 | 6.7 | 5.87 ± 0.57 | 11.6 ± 0.078 |
| MRGEFYQQLTNDLETARAEGLFKEERIITSAQQADITVADGSHVINFCANNYLGLANHPDLIAAAKAGMDSHGFGMASVRFICGTQDSHKELEQKLAAFLGMEDAILYSSCFDANGGLFETLLGAEDAIISDALNHASIIDGVRLCKAKRYRYANNDMQELEARLKEAREAGARHVLIATDGVFSMDGVIANLKGVCDLADKYDALVMVDDSHAVGFVGENGRGSHEYCDVMGRVDIITGTLGKALGGASGGYTAARKEVVEWLRQRSRPYLFSNSLAPAIVAASIKVLEMVEAGSELRDRLWANARQFREQMSAAGFTLAGADHAIIPVMLGDAVVAQKFARELQKEGIYVTGFFYPVVPKGQARIRTQMSAAHTPEQITRAVEAFTRIGKQLGVIA [P0AB77] | 5.66 ± 1.2 | 4.59 ± 0.16 | 4.78 ± 0.57 | 4.56 ± 0.44 | 4.39 ± 0.082 | 3.46 ± 0.59 | 5.66 ± 0.2 |  | 4.55 ± 0.25 | 6.84 ± 0.5 | 6.03 ± 0.29 | 11.11 ± 0.03 |
| MRHIFQRLLPRRLWLAGLPCLALLGCVQNHNKPAIDTPAEEKIPVYQLADYLSTECSDIWALQGKSTETNPLYWLRAMDCADRLMPAQSRQQARQYDDGSWQNTFKQGILLADAKITPYERRQLVARIEALSTEIPAQVRPLYQLWRDGQALQLQLAEERQRYSKLQQSSDSELDTLRQQHHVLQQQLELTTRKLENLTDIERQLSTRKPAGNFSPDTPHESEKPAPSTHEVTPDEP [P0AD44] | 6.11 ± 0.099 | 6.44 ± 0.17 | 6.18 ± 0.37 | 6.9 ± 0.22 | 6.12 ± 0.2 | 3.34 ± 0.092 | 6.14 ± 0.27 | 13.1 ± 0.57 | 6.28 ± 1 | 14 ± 1.2 |  | 12.2 ± 3.1 |
